Measured values published in the supplement of paper PMC9428881.
± gives the standard error.

Test: background-corrected fluorescence of 3'-dye-labeled ssDNA relative to brightest sequence (3'-GCGCG) (fraction); higher = brighter dye fluorescence (less quenching)
Outline: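 Light-directed phosphoramidite synthesis on glass slides produced single-stranded DNA carrying a 3' Cy3 or Cy5 dye next to each of 1024 permuted pentamers. After a 2 h acetonitrile wash at r.t., arrays were scanned at 532 or 635 nm both before and after overnight deprotection in ethylenediamine/ethanol. Every value is the mean of 10 features per array over at least 3 syntheses. Fluorescence had unlabeled-oligo background subtracted and was scaled to the brightest sequence.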

TTTTTTCATGATGAGCATCATTTTTTTTTTTTTTTGCCTG [GTCCG]
background-corrected fluorescence (dye: Cy3 (3' terminal)): 0.481 ± 0.028
background-corrected fluorescence (dye: Cy5 (3' terminal)): 0.35 ± 0.021

TTTTTTCATGATGAGCATGATTTTTTTTTTTTTTTGCCTC [CTCCG]
background-corrected fluorescence (dye: Cy3 (3' terminal)): 0.354 ± 0.016
background-corrected fluorescence (dye: Cy5 (3' terminal)): 0.286 ± 0.06

TTTTTTCATGATGAGCATGCTTTTTTTTTTTTTTTGCCTA [ATCCG]
background-corrected fluorescence (dye: Cy3 (3' terminal)): 0.493 ± 0.016
background-corrected fluorescence (dye: Cy5 (3' terminal)): 0.366 ± 0.039

TTTTTTCATGATGATCAGCATTTTTTTTTTTTTTTGCCGT
background-corrected fluorescence (dye: Cy3 (3' terminal)): 0.651 ± 0.025
background-corrected fluorescence (dye: Cy5 (3' terminal)): 0.487 ± 0.022

TTTTTTCATGATGATCATCATTTTTTTTTTTTTTTGCCGG [GGCCG]
background-corrected fluorescence (dye: Cy3 (3' terminal)): 0.665 ± 0.025
background-corrected fluorescence (dye: Cy5 (3' terminal)): 0.564 ± 0.072

TTTTTTCATGATGATCATGATTTTTTTTTTTTTTTGCCGC [CGCCG]
background-corrected fluorescence (dye: Cy3 (3' terminal)): 0.549 ± 0.017
background-corrected fluorescence (dye: Cy5 (3' terminal)): 0.434 ± 0.033

TTTTTTCATGATGATCATGCTTTTTTTTTTTTTTTGCCGA [AGCCG]
background-corrected fluorescence (dye: Cy3 (3' terminal)): 0.621 ± 0.024
background-corrected fluorescence (dye: Cy5 (3' terminal)): 0.547 ± 0.034

TTTTTTCATGATGATGAGCATTTTTTTTTTTTTTTGCCCT [TCCCG]
background-corrected fluorescence (dye: Cy3 (3' terminal)): 0.449 ± 0.021
background-corrected fluorescence (dye: Cy5 (3' terminal)): 0.329 ± 0.019

TTTTTTCATGATGATGATCATTTTTTTTTTTTTTTGCCCG
background-corrected fluorescence (dye: Cy3 (3' terminal)): 0.488 ± 0.0067
background-corrected fluorescence (dye: Cy5 (3' terminal)): 0.394 ± 0.045

TTTTTTCATGATGATGATGATTTTTTTTTTTTTTTGCCCC [CCCCG]
background-corrected fluorescence (dye: Cy3 (3' terminal)): 0.32 ± 0.038
background-corrected fluorescence (dye: Cy5 (3' terminal)): 0.272 ± 0.012

TTTTTTCATGATGATGATGCTTTTTTTTTTTTTTTGCCCA [ACCCG]
background-corrected fluorescence (dye: Cy3 (3' terminal)): 0.479 ± 0.026
background-corrected fluorescence (dye: Cy5 (3' terminal)): 0.389 ± 0.058

TTTTTTCATGATGATGCGCATTTTTTTTTTTTTTTGCCAT [TACCG]
background-corrected fluorescence (dye: Cy3 (3' terminal)): 0.516 ± 0.048
background-corrected fluorescence (dye: Cy5 (3' terminal)): 0.404 ± 0.029

TTTTTTCATGATGATGCTCATTTTTTTTTTTTTTTGCCAG [GACCG]
background-corrected fluorescence (dye: Cy3 (3' terminal)): 0.519 ± 0.015
background-corrected fluorescence (dye: Cy5 (3' terminal)): 0.384 ± 0.031

TTTTTTCATGATGATGCTGATTTTTTTTTTTTTTTGCCAC [CACCG]
background-corrected fluorescence (dye: Cy3 (3' terminal)): 0.393 ± 0.022
background-corrected fluorescence (dye: Cy5 (3' terminal)): 0.299 ± 0.015

TTTTTTCATGATGATGCTGCTTTTTTTTTTTTTTTGCCAA [AACCG]
background-corrected fluorescence (dye: Cy3 (3' terminal)): 0.504 ± 0.034
background-corrected fluorescence (dye: Cy5 (3' terminal)): 0.427 ± 0.041

TTTTTTCATGATGCGCAGCATTTTTTTTTTTTTTTGCATT [TTACG]
background-corrected fluorescence (dye: Cy3 (3' terminal)): 0.514 ± 0.018
background-corrected fluorescence (dye: Cy5 (3' terminal)): 0.395 ± 0.019

TTTTTTCATGATGCGCATCATTTTTTTTTTTTTTTGCATG [GTACG]
background-corrected fluorescence (dye: Cy3 (3' terminal)): 0.508 ± 0.023
background-corrected fluorescence (dye: Cy5 (3' terminal)): 0.385 ± 0.023

TTTTTTCATGATGCGCATGATTTTTTTTTTTTTTTGCATC [CTACG]
background-corrected fluorescence (dye: Cy3 (3' terminal)): 0.441 ± 0.025
background-corrected fluorescence (dye: Cy5 (3' terminal)): 0.288 ± 0.026

TTTTTTCATGATGCGCATGCTTTTTTTTTTTTTTTGCATA [ATACG]
background-corrected fluorescence (dye: Cy3 (3' terminal)): 0.574 ± 0.02
background-corrected fluorescence (dye: Cy5 (3' terminal)): 0.431 ± 0.024

TTTTTTCATGATGCTCAGCATTTTTTTTTTTTTTTGCAGT [TGACG]
background-corrected fluorescence (dye: Cy3 (3' terminal)): 0.607 ± 0.021
background-corrected fluorescence (dye: Cy5 (3' terminal)): 0.51 ± 0.055

TTTTTTCATGATGCTCATCATTTTTTTTTTTTTTTGCAGG [GGACG]
background-corrected fluorescence (dye: Cy3 (3' terminal)): 0.642 ± 0.025
background-corrected fluorescence (dye: Cy5 (3' terminal)): 0.516 ± 0.039

TTTTTTCATGATGCTCATGATTTTTTTTTTTTTTTGCAGC [CGACG]
background-corrected fluorescence (dye: Cy3 (3' terminal)): 0.508 ± 0.0059
background-corrected fluorescence (dye: Cy5 (3' terminal)): 0.402 ± 0.045

TTTTTTCATGATGCTCATGCTTTTTTTTTTTTTTTGCAGA [AGACG]
background-corrected fluorescence (dye: Cy3 (3' terminal)): 0.682 ± 0.017
background-corrected fluorescence (dye: Cy5 (3' terminal)): 0.552 ± 0.035

TTTTTTCATGATGCTGAGCATTTTTTTTTTTTTTTGCACT [TCACG]
background-corrected fluorescence (dye: Cy3 (3' terminal)): 0.482 ± 0.048
background-corrected fluorescence (dye: Cy5 (3' terminal)): 0.339 ± 0.024

TTTTTTCATGATGCTGATCATTTTTTTTTTTTTTTGCACG
background-corrected fluorescence (dye: Cy3 (3' terminal)): 0.548 ± 0.028
background-corrected fluorescence (dye: Cy5 (3' terminal)): 0.383 ± 0.035

TTTTTTCATGATGCTGATGATTTTTTTTTTTTTTTGCACC [CCACG]
background-corrected fluorescence (dye: Cy3 (3' terminal)): 0.391 ± 0.024
background-corrected fluorescence (dye: Cy5 (3' terminal)): 0.28 ± 0.022

TTTTTTCATGATGCTGATGCTTTTTTTTTTTTTTTGCACA [ACACG]
background-corrected fluorescence (dye: Cy3 (3' terminal)): 0.483 ± 0.025
background-corrected fluorescence (dye: Cy5 (3' terminal)): 0.375 ± 0.026

TTTTTTCATGATGCTGCGCATTTTTTTTTTTTTTTGCAAT [TAACG]
background-corrected fluorescence (dye: Cy3 (3' terminal)): 0.53 ± 0.018
background-corrected fluorescence (dye: Cy5 (3' terminal)): 0.406 ± 0.027

TTTTTTCATGATGCTGCTCATTTTTTTTTTTTTTTGCAAG [GAACG]
background-corrected fluorescence (dye: Cy3 (3' terminal)): 0.503 ± 0.04
background-corrected fluorescence (dye: Cy5 (3' terminal)): 0.422 ± 0.029

TTTTTTCATGATGCTGCTGATTTTTTTTTTTTTTTGCAAC [CAACG]
background-corrected fluorescence (dye: Cy3 (3' terminal)): 0.469 ± 0.014
background-corrected fluorescence (dye: Cy5 (3' terminal)): 0.319 ± 0.017

TTTTTTCATGATGCTGCTGCTTTTTTTTTTTTTTTGCAAA [AAACG]
background-corrected fluorescence (dye: Cy3 (3' terminal)): 0.599 ± 0.028
background-corrected fluorescence (dye: Cy5 (3' terminal)): 0.497 ± 0.03

TTTTTTCATGCGCAGCAGCATTTTTTTTTTTTTTTGATTT [TTTAG]
background-corrected fluorescence (dye: Cy3 (3' terminal)): 0.531 ± 0.03
background-corrected fluorescence (dye: Cy5 (3' terminal)): 0.383 ± 0.029

TTTTTTCATGCGCAGCATCATTTTTTTTTTTTTTTGATTG [GTTAG]
background-corrected fluorescence (dye: Cy3 (3' terminal)): 0.543 ± 0.0077
background-corrected fluorescence (dye: Cy5 (3' terminal)): 0.355 ± 0.024

TTTTTTCATGCGCAGCATGATTTTTTTTTTTTTTTGATTC [CTTAG]
background-corrected fluorescence (dye: Cy3 (3' terminal)): 0.451 ± 0.026
background-corrected fluorescence (dye: Cy5 (3' terminal)): 0.317 ± 0.02
